Assay results published in patent publication WO2022210830A1 (dated 2022).

Columns and labels:
Assay in all cases: cell-based or functional assay
[1] = molecular target: Kappa strain spike protein on pseudotype virus (SARS-CoV-2, UniProt P0DTC2 14-1273)
[2] = molecular target: Omicron strain spike protein on pseudotype virus (SARS-CoV-2, UniProt P0DTC2 14-1273)
[3] = molecular target: Delta strain spike protein on pseudotype virus (SARS-CoV-2, UniProt P0DTC2 14-1273)

B1: 0210-28K (antibody, V domains shown)
VH: QMQLVQSGPEVKKPGTSVKVSCKASGFTFSISAVQWVRQARGQRLEWIGWIVVGSGNTNYAQKFQERVTITRDMSTSTAYMELSSLRFEDTAVYYCAAPYCGGDCSDGFDIWGQGTMVTVSS
VL: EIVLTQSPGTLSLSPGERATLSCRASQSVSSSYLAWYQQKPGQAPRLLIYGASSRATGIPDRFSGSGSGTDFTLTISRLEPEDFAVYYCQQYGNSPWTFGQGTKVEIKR
IC50, inhibition of pseudotype virus infection, 1st experiment [1]: 0.0108 µg/mL
IC50, inhibition of pseudotype virus infection, 2nd experiment [1]: 0.0203 µg/mL
IC50, inhibition of pseudotype virus infection (luciferase) [2]: ~0.2 nM
IC50, inhibition of pseudotype virus infection, 1st experiment [3]: < 0.0075 µg/mL
IC50, inhibition of pseudotype virus infection, 2nd experiment [3]: 0.0121 µg/mL
